# According to PMC6374739:
# B1: mCherry-UVR8-GFP (wild-type UV … LOCUS 8, from the pFRET-NcCg-DEST vector) [Arabidopsis thaliana] / itself (parent)
# chain: MAEDMAADEVTAPPRKVLIISAGASHSVALLSGDIVCSWGRGEDGQLGHGDAEDRPSPTQLSALDGHQIVSVTCGADHTVAYSQSGMEVYSWGWGDFGRLGHGNSSDLFTPLPIKALHGIRIKQIACGDSHCLAVTMEGEVQSWGRNQNGQLGLGDTEDSLVPQKIQAFEGIRIKMVAAGAEHTAAVTEDGDLYGWGWGRYGNLGLGDRTDRLVPERVTSTGGEKMSMVACGWRHTISVSYSGALYTYGWSKYGQLGHGDLEDHLIPHKLEALSNSFISQISGGWRHTMALTSDGKLYGWGWNKFGQVGVGNNLDQCSPVQVRFPDDQKVVQVSCGWRHTLAVTERNNVFAWGRGTNGQLGIGESVDRNFPKIIEALSVDGASGQHIESSNIDPSSGKSWVSPAERYAVVPDETGLTDGSSKGNGGDISVPQTDVKRVRI
# Experiments:
# Conditions in all cases: with itself, read off a plot
# itself [1] = variants of: B1; assay: FRET by acceptor photobleaching in tobacco leaves, pFRET-NcCg-DEST vector
# itself [2] = variants of: B1; assay: FRET (sensitized emission ratio mCherry(488)/GFP(488)) in tobacco leaves, pFRET-NcCg-DEST vector
# itself [3] = variants of: B1; assay: intermolecular FRET (sensitized emission ratio mCherry(488)/GFP(488)) in tobacco leaves, pFRET-2in1-DEST vector
# [4] = +UV-B: 3 μmol m–2 s–1 broadband UV-B for 1 hour, parent: 11
# [5] = +UV-B: 3 μmol m–2 s–1 broadband UV-B for 1 hour, parent: 0.5
# [6] = +UV-B: 3 μmol m–2 s–1 broadband UV-B for 1 hour, parent: 0.44
variant,measurement,setting,value
chain 1 W285F,response,itself [1]; [4],17%
same,response,"itself [1]; -UV-B, parent: 18",17%
same,response,itself [2]; [5],0.58
same,response,"itself [2]; -UV-B, parent: 0.56",0.59
same,response,itself [3]; [6],0.51
same,response,"itself [3]; -UV-B, parent: 0.5",0.5
chain 1 D96N D107N,response,itself [1]; [4],9.7%
same,response,"itself [1]; -UV-B, parent: 18",9.6%
same,response,itself [2]; [5],0.43
same,response,"itself [2]; -UV-B, parent: 0.56",0.43
same,response,itself [3]; [6],0.33
same,response,"itself [3]; -UV-B, parent: 0.5",0.33
